Measurements reported in patent publication US20210198349A1 (NEW YORK UNIVERSITY, published 2021).

T1: Tau 407-423 peptide (non-truncated Asp421 epitope)
T1 construct: Immobilized in the ELISA, analyte in the Biacore analysis
T1 peptide: HLSNVSSTGSIDMVDSP

T2: Tau 407-421 peptide (Truncated Asp421 Epitope of Tau)
T2 construct: Immobilized in the ELISA, analyte in the Biacore analysis
T2 peptide: HLSNVSSTGSIDMVD


Legend:
[1] = molecular target: T1, Tau 407-423 peptide (non-truncated …); assay: Biacore (SPR), peptide as analyte
[2] = molecular target: T2, Tau 407-421 peptide (Truncated Asp421 …); assay: Biacore (SPR), peptide as analyte
[3] = molecular target: T1, Tau 407-423 peptide (non-truncated …); assay: ELISA, immobilized peptide
Source text: (§1) The data thus confirms the ability of Antibodies 1G11A10, 5G2A3 and 5G2G6 to immunospecifically bind to the Truncated Asp421 Epitope of Tau.

[4] = molecular target: T2, Tau 407-421 peptide (Truncated Asp421 …); assay: ELISA
Source text: as §1

[5] = molecular target: T1, Tau 407-423 peptide (non-truncated …); assay: Biacore, peptide as analyte

Kd [1] | Kd [2] | binding result [3] | binding result [4] | binding result [5] | Binder
5070 nM | 7.46 nM | – | – | – | Antibody 5G2A3 (antibody, V domains shown, Hybridoma-derived monoclonal antibody; also called 5G2A3/5G2G6) VH: EVKLVESGGGLVKPGGSLTLSCAASGFTFSSYAMSWVRQTPEKSLEWVASISSGGNTFYPDTVKGRFTISRDNARNILYLQMSGLRSEDTAIYYCARRGDPNMITTLFGYWGQGTLVTISA VL: DVLMTQTPLSLPVSLGDQASISCRSSQSILHRNGNTYLDWFLLKPGQSPKLLIYKVSNRFSGVPDRFSGSGSGTDFTLKISRVEAEDLGVYYCFQGSHVPWTFGGGTKLEIK
– | – | no binding | – | – | Antibody 5B3C11 (antibody, V domains shown, Tested as hybridoma culture supernatant) VH: EVQLVESGGGLVKPGGSLKLSCAASGFTFSNYALSWVRQTPEKRLEWVASISSGGNTYYPDSVKGRFTISRDNARNILYLQMSSLRSEDTAMFYCTSRGDTTLITTLFTYWGQGTLVTVSA VL: DVLMTQTPLSLPVSLGDQASISCRSNQSILHSNGNTYLDWYLQKPGQSPKLLIYKVSNRFSGVPDRFSGSGSGTDFTLRISRVEAEDLGVYYCFQGSHIPWTFGGGTKLEIK
– | – | no binding | binds | – | Antibody 1G10D2 (antibody, V domains shown) VH: EVKLVESGGDLVTPGGSLKVSCAASGLTFSDSAMSWVRLTPEKRLEWVASISTGGATYYPDGLKGRFTISRDDARNILFLQMNSLRSEDTAMYYCTRRGVSSGNLFTYWGQGTLVTVSA VL: DVLMTQTPLSLPVSLGDQASISCRSSQSILNSNGNTYLEWYLQKPGQSPKLLIYKVSNRFSGVPDRFSGSGSGTDFTLKISRVEAEDLGVYYCFQGSHVPWTFGGGTKLEIK
– | 1070 nM | – | – | no binding | Antibody 1G11A10 (antibody, V domains shown, Hybridoma-derived monoclonal antibody) VH: EVKLVESGGGLMKPGGSLKLSCAASGFTFSSYAMSWVRQSPEKRLEWVASISSGGQTYSPDSVKGRFTISRDNARNILYLQMRNLRSEDTAMYYCASRGDPTMTATLFVYWGQGTLVTVS VL: DVLMTQTPLSLPVSLGDQASISCRSSQSIINSNGNTYLEWYLQKPGQSPKLLIYKVSNRFSGVPDRFSGSGSGTDFTLKISRVETEDLGIYYCFQGSHVPWTFGGGTKLEIK
